Results reported in US20220267464A1.
Where two headings read alike, the source gives them in different places.

Assays:
[1] = target: human 4-1BB on Jurkat-hu4-1BB-NFκB-luc2 reporter cells (human) (UniProt Q07011); assay: cell-based or functional assay; set-up: AUC of activation curve, Jurkat-hu4-1BB-NFκB-luc2, no CEA+ cells / AUC of activation curve, Jurkat-hu4-1BB-NFκB-luc2 with CHO-k1-cyno CEACAM5 clone 8: unit not given beside the values
[2] = target: human CEACAM5 (carcinoembryonic antigen, CEA) on cells (human) (UniProt P06731); assay: cell-based or functional assay; set-up: AUC of activation curve, Jurkat-hu4-1BB-NFκB-luc2, no CEA+ cells / AUC of activation curve, Jurkat-hu4-1BB-NFκB-luc2 with CHO-k1-cyno CEACAM5 clone 8: unit not given beside the values
[3] = target: cynomolgus monkey CEACAM5 on CHO-k1-cynoCEACAM5 clone 8 cells (cynomolgus monkey); assay: cell-based or functional assay; set-up: AUC of activation curve, Jurkat-hu4-1BB-NFκB-luc2, no CEA+ cells / AUC of activation curve, Jurkat-hu4-1BB-NFκB-luc2 with CHO-k1-cyno CEACAM5 clone 8: unit not given beside the values
[4] = target: human CEACAM5 (carcinoembryonic antigen, CEA) on cells (human) (UniProt P06731); assay: cell-based or functional assay
[5] = target: human CEACAM5 (carcinoembryonic antigen, CEA) on cells (human) (UniProt P06731); assay: flow cytometry, CHO-k1-huCEACAM5 clone 11; set-up: unit not given beside the values
[6] = target: human CEACAM5 (carcinoembryonic antigen, CEA) on cells (human) (UniProt P06731); assay: flow cytometry, CHO-k1-huCEACAM5 clone 13; set-up: unit not given beside the values
[7] = target: cynomolgus monkey CEACAM5 on CHO-k1-cynoCEACAM5 clone 8 cells (cynomolgus monkey); assay: flow cytometry, CHO-k1-cynoCEACAM5 clone 8; set-up: unit not given beside the values
[8] = target: human CEACAM5 (carcinoembryonic antigen, CEA) on cells (human) (UniProt P06731); assay: flow cytometry, CHO-k1-huCEACAM5 clone 12; set-up: unit not given beside the values
[9] = target: human CEACAM5 (carcinoembryonic antigen, CEA) on cells (human) (UniProt P06731); assay: flow cytometry, CHO-k1-huCEACAM5 clone 12; set-up: unit not given beside the values; remark: listed apart in the source
[10] = target: human CEACAM5 (carcinoembryonic antigen, CEA) on cells (human) (UniProt P06731); assay: flow cytometry, CHO-k1-huCEACAM5 clone 11; set-up: unit not given beside the values; remark: listed apart in the source
[11] = target: human CEACAM5 (carcinoembryonic antigen, CEA) on cells (human) (UniProt P06731); assay: flow cytometry, CHO-k1-huCEACAM5 clone 17; set-up: unit not given beside the values
[12] = target: cynomolgus monkey CEACAM5 on CHO-k1-cynoCEACAM5 clone 8 cells (cynomolgus monkey); assay: flow cytometry, CHO-k1-cynoCEACAM5 clone 8; set-up: unit not given beside the values; remark: listed apart in the source
[13] = target: human CEACAM5 (carcinoembryonic antigen, CEA) on cells (human) (UniProt P06731); assay: flow cytometry, MKN45 cells; set-up: unit not given beside the values

Chain of human CEACAM5 (carcinoembryonic antigen, CEA) on cells (human) (P06731 35-685 E398K limits assumed): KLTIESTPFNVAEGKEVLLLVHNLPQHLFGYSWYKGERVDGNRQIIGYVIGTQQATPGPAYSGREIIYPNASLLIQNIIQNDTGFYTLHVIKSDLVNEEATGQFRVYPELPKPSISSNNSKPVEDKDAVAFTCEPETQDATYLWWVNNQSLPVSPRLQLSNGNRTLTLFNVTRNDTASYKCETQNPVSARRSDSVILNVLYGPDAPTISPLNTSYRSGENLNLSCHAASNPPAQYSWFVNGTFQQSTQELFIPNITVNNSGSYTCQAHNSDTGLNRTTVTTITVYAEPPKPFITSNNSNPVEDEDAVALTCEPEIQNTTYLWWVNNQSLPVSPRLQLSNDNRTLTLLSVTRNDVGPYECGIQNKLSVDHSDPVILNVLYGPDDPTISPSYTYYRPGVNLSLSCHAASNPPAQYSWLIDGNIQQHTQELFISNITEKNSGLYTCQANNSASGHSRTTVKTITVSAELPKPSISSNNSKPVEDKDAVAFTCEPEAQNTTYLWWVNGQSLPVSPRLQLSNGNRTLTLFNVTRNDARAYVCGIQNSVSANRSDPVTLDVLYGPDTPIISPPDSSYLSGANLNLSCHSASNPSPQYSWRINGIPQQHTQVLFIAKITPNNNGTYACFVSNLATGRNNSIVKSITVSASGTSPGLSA
Chain of human 4-1BB on Jurkat-hu4-1BB-NFκB-luc2 reporter cells (human) (Q07011 24-255 limits assumed): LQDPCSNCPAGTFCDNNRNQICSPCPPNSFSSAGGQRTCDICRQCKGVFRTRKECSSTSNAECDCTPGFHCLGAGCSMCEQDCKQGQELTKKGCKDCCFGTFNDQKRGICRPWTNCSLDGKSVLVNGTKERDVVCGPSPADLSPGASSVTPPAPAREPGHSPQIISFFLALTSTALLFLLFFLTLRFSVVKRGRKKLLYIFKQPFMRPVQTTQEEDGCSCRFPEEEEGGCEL

Substance | AUC of activation curve, Jurkat-hu4-1BB-NFκB-luc2, no CEA+ cells [1] | AUC of activation curve, Jurkat-hu4-1BB-NFκB-luc2 with CHO-k1-human CEACAM5 clone 11 [2] | AUC of activation curve, Jurkat-hu4-1BB-NFκB-luc2 with CHO-k1-human CEACAM5 clone 12 [2] | AUC of activation curve, Jurkat-hu4-1BB-NFκB-luc2 with CHO-k1-cyno CEACAM5 clone 8 [3] | EC50, NFκB-luciferase in Jurkat-hu4-1BB-NFκB-luc2 with CHO-k1-human CEACAM5 clone 11 [4] [nM] | EC50, NFκB-luciferase in Jurkat-hu4-1BB-NFκB-luc2 with CHO-k1-human CEACAM5 clone 12 [4] [nM] | further results
CEA (MEDI-565)-4-1BBL (Fc fusion) | 2270 |  |  |  |  |  | 
P1AD5108-002 DP47 huIgG1 PG LALA (Isotype control) (antibody) |  |  |  |  |  |  | AUC [13]: 420

Continued, in another order:

AUC of activation curve, Jurkat-hu4-1BB-NFκB-luc2, no CEA+ cells [1] | AUC of activation curve, Jurkat-hu4-1BB-NFκB-luc2 with CHO-k1-human CEACAM5 clone 11 [2] | AUC of activation curve, Jurkat-hu4-1BB-NFκB-luc2 with CHO-k1-human CEACAM5 clone 12 [2] | AUC of activation curve, Jurkat-hu4-1BB-NFκB-luc2 with CHO-k1-cyno CEACAM5 clone 8 [3] | EC50, NFκB-luciferase in Jurkat-hu4-1BB-NFκB-luc2 with CHO-k1-human CEACAM5 clone 11 [4] [nM] | EC50, NFκB-luciferase in Jurkat-hu4-1BB-NFκB-luc2 with CHO-k1-human CEACAM5 clone 12 [4] [nM] | Substance | further results
2810 | 162000 | 164000 | 3970 | 0.05 | 0.03 | CEA(sm9b)-4-1BBL (Fc fusion) | 
1980 | 150000 | 146000 | 2820 | 0.09 | 0.07 | CEA(sm9b)-4-1BBL single chain (Fc fusion) | 
2930 | 8640 | 6640 | 4710 |  |  | DP47-4-1BBL (Fc fusion) | AUC [5]: 1300; AUC [6]: 752; AUC [7]: 520; AUC [8]: 140; AUC [9]: 700; AUC [10]: 148; AUC [11]: 430; AUC [12]: 11
